What was measured:
HEK cells = test: DAB staining of transfected cells (brightfield); type: cell-based; settings: for DAB staining activity in mitochondrial matrix: mitochondrial matrix-targeted constructs, HEK cells
Procedure: Next, the activity of wt APX and mAPX was compared in mammalian cells.
(§1) To generate a monomeric APX with improved activity, the two mAPX mutations (K14D/E112K) were added to each of the activity-enhanced mutants. […] The sextuple mutant (K14D, E112K, W41F, D133A, T135F, K136F=mAPX−FFAF), was compared to mAPX+W41F within cells. HEK cells were transfected with constructs targeted to the mitochondrial matrix (Table 3), while COS-7 cells were transfected with constructs fused to the C-terminus of connexin 43 (Table 3). After fixation, the cells were treated with DAB and H2O2 to generate DAB polymer. […] After fixation, cells were stained with anti-Flag (for matrix) or anti-myc (for connexin) antibody to visualize peroxidase expression levels. […] Therefore mAPX+W41F (K14D/E112K/W41F) was selected, denoted as “APEX” (for Enhanced APX), as the optimized reporter for subsequent experiments.
A solution of 4% formaldehyde (freshly depolymerized from paraformaldehyde) with 2% glutaraldehyde in 10 mM phosphate buffered saline (PBS) was added to cells 24 hours after transfection. Cells were treated for 3 min at room temperature, then 30 min on ice. Cells were then washed 5×2 min using ice cold 10 mM PBS. Cells were blocked with 20 mM glycine for 5 min on ice. Cells were then washed 5×2 min with ice-cold 10 mM PBS. Cells were then treated with an ice-cold solution of DAB (0.5 mg/mL) and H2O2 (0.03%) in 10 mM PBS for 20 min. Cells were then washed 5×2 min with ice-cold 10 mM PBS. Cells were treated with 2% OsO4 in ice-cold 10 mM PBS for 30 min, then washed 5×2 min with ice-cold distilled deionized water. Cells were then placed under ice-cold 2% aqueous uranyl acetate for 24 hours.
(§2) Any cell displaying detectable GFP fluorescence was considered transfected. Contact sites between neighboring transfected cells were identified using DIC imaging. Gap junctions were identified as lines of GFP fluorescence unambiguously overlaying with the plasma membrane of two transfected cells based on DIC. DAB stain intensity for APX-NES variants was analyzed using SlideBook. Transfected cells were identified by nuclear YFP fluorescence. In each transfected cell, a representative DAB-stained region was encircled, and its average brightfield intensity was calculated. Background intensity, determined for each field of view by encircling a representative region in the cytosol of an untransfected cell, was subtracted out. The bar graph in FIG. 2c represents mean data from >60 transfected cells.

connexin43 (Cx43) = test: Connexin43 fusion localization to gap junctions; type: cell-based, rat; settings: fused to connexin43
Procedure: Both mAPX and wt APX were fused to connexin43 (Cx43), a protein that is sensitive to oligomeric tags (FIG. 4d) (McKinney, et. al., Nat Meth 6, 131-133 (2009); Lauf, et. al., FEBS letters 498, 11-15 (2001)).
as §1, §2

B1: wt APX: pea cytosolic ascorbate peroxidase (Pisum sativum), wild type, about 28 kD, dimeric (protein, listed as Pisum sativum)
chain: MGKSYPTVSPDYQKAIEKAKRKLRGFIAEKKCAPLILRLAWHSAGTFDSKTKTGGPFGTIKHQAELAHGANNGLDIAVRLLEPIKEQFPIVSYADFYQLAGVVAVEITGGPEVPFHPGREDKPEPPPEGRLPDATKGSDHLRDVFGKAMGLSDQDIVALSGGHTIGAAHKERSGFEGPWTSNPLIFDNSYFTELLTGEKDGLLQLPSDKALLTDSVFRPLVEKYAADEDVFFADYAEAHLKLSELGFAEA
HEK cells
  DAB staining activity in mitochondrial matrix: comparably active
connexin43 (Cx43)
  localization of connexin43 fusion / gap junction formation: abnormal retention inside cells

B2: mAPX: double mutant K14D/E112K of pea APX (SEQ ID NO:1), monomeric (protein, listed as Pisum sativum)
chain: MGKSYPTVSPDYQDAIEKAKRKLRGFIAEKKCAPLILRLAWHSAGTFDSKTKTGGPFGTIKHQAELAHGANNGLDIAVRLLEPIKEQFPIVSYADFYQLAGVVAVEITGGPKVPFHPGREDKPEPPPEGRLPDATKGSDHLRDVFGKAMGLSDQDIVALSGGHTIGAAHKERSGFEGPWTSNPLIFDNSYFTELLTGEKDGLLQLPSDKALLTDSVFRPLVEKYAADEDVFFADYAEAHLKLSELGFAEA
HEK cells; expressed throughout the cytosol via NES fusion
  activity toward DAB (DAB stain): less active than wt APX
HEK cells
  DAB staining activity in mitochondrial matrix: comparably active

Source: US9663815B2, “Cytosolically-active peroxidases as reporters for microscopy” (Massachusetts Institute of Technology, priority 2011, dated 2017)
